Measurements reported in patent publication US20180305405A1.
One block for each binder: values may come before it. Where no end group is shown, it is not given here.

Legend:
[1] = molecular target: αvβ3 integrin receptor expressed on mouse H5V endothelial cells (mouse) (UniProt P43406); assay: cell-based or functional assay
[2] = molecular target: αvβ3 integrin receptor expressed on mouse H5V endothelial cells (mouse) (UniProt P43406); assay: H5V cell binding assay at 4 °C, time-resolved fluorometry; non-specific binding defined with 1 µM RGD-4C; low ligand concentrations
[3] = molecular target: αvβ3 integrin receptor expressed on mouse H5V endothelial cells (mouse) (UniProt P43406); assay: Scatchard analysis of Eu-RGD-4C binding to H5V cells at 4 °C, time-resolved fluorometry
[4] = molecular target: αvβ3 integrin receptor expressed on mouse H5V endothelial cells (mouse) (UniProt P43406); assay: H5V cell binding assay at 4 °C, time-resolved fluorometry; non-specific binding defined with 1 µM RGD-4C; highest ligand concentration

Chain of αvβ3 integrin receptor expressed on mouse H5V endothelial cells (mouse) (P43406 31-1044, chain 1 of 2): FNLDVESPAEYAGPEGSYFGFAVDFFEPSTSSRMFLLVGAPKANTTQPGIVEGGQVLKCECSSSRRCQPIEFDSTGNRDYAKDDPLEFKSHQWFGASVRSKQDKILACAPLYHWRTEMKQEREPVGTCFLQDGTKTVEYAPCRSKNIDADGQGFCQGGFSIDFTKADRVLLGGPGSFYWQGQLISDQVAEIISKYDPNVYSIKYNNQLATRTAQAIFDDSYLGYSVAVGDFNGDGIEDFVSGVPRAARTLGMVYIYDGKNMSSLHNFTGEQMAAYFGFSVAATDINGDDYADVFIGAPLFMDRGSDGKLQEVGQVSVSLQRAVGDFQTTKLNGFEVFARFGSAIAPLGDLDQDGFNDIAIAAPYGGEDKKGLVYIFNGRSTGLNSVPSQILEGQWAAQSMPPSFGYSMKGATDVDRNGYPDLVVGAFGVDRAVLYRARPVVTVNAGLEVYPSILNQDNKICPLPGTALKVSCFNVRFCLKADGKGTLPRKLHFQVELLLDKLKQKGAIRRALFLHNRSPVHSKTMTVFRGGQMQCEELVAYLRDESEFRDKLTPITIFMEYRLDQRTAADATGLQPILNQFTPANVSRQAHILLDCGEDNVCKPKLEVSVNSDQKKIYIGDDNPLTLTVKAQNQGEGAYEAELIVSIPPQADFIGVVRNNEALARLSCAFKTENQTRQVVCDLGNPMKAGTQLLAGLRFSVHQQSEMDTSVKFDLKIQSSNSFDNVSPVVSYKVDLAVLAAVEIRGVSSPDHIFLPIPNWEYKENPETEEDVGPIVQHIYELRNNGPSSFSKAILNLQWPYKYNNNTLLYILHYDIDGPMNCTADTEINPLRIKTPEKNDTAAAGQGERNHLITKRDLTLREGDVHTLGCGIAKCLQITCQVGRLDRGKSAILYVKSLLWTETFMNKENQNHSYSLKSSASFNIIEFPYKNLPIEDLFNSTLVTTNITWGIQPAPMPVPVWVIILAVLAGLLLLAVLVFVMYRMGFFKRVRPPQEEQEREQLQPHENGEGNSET
Chain of αvβ3 integrin receptor expressed on mouse H5V endothelial cells (mouse) (O54890 26-787, chain 2 of 2, further chain): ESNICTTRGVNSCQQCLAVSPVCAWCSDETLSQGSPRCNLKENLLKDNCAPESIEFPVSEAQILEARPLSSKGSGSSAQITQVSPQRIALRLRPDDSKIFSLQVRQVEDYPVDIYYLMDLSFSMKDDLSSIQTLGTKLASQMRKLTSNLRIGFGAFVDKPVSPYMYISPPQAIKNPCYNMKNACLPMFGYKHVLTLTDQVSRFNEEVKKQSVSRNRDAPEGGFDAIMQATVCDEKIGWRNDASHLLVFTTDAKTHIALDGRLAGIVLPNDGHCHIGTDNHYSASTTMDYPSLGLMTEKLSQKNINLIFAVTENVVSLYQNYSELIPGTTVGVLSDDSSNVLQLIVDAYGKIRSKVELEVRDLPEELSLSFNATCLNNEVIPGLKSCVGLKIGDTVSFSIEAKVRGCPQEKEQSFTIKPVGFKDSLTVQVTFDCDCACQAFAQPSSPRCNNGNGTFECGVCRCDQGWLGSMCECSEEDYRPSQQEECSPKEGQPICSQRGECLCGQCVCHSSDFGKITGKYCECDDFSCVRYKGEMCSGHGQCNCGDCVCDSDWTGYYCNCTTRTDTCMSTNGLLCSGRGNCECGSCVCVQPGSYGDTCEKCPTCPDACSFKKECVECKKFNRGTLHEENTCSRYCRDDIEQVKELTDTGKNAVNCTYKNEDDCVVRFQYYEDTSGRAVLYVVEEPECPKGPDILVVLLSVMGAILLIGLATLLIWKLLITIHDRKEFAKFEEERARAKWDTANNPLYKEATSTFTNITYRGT

H5V endothelial cell detachment (rounded cells) in cell-rounding assay, 100 µM RGD-4C [1]: 99%
B1: cyclic nonapeptide RGD-4C (peptide)
peptide: H-CDCRGDCFC-NH2
modifications: disulfide (positions not given here); also: two disulfides, pairing not given here

ratio of total binding to non-specific binding [2]: 1
Kd [3]: 37.2 to 41.3 nM
ratio of total binding to non-specific binding [4]: 4
B2: Eu-labeled RGD-4C (isothiocyanatophenyl-DTPA-Eu-RGD-4C) (peptide)
peptide: CDCRGDCFC-NH2
modifications: disulfide (positions not given here); also: two disulfides among four Cys, pairing not given here, isothiocyanatophenyl-DTPA-Eu conjugated, site not given here
